# Reference: the supplement of paper PMC7125110
# ± gives the standard error. For part of these data: Variants at the floor of the assay were thinned out.
# B1: glmS ribozyme (parent)
# chain: AUAAAAGCGCCAGAACUACAGAAAUGUAGUUGACGAGGAGGAGGUUUAUCGAAUUUUCGGCGGAUGCCUCCAAA
# What was measured:
# Settings in all cases: with glucosamine-6-phosphate
# glucosamine-6-phosphate [1] = variants of: B1; test: kcat; higher = faster cleavage; RNA array
# Summary of the method: (§1)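 kobs was derived by fitting per-tile medians to one- or two-exponential decays after normalising signals to baseline and to non-cleaving reference variants. Those signals came from barcoded ribozyme variants transcribed in situ by E. coli RNA polymerase on sequenced MiSeq chips, followed through a hybridised Cy3 probe at 37 °C and imaged over ~14 h. Glucosamine-6-phosphate (40 μM to 10 mM) in HEPES/KCl/Mg(OAc)2 buffer was flowed in. Weighted Michaelis–Menten fits across concentrations then gave kcat and KM.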
# glucosamine-6-phosphate [2] = variants of: B1; test: KM; higher = weaker cofactor use; RNA array
# Summary of the method: as §1
# glucosamine-6-phosphate [3] = variants of: B1; test: self-cleavage kobs at 640 uM GlcN6P; higher = faster cleavage; RNA array
# Summary of the method: as §1
# glucosamine-6-phosphate [4] = variants of: B1; test: self-cleavage kobs at 2500 uM GlcN6P; higher = faster cleavage; RNA array
# Summary of the method: as §1
# glucosamine-6-phosphate [5] = variants of: B1; test: self-cleavage kobs at 10000 uM GlcN6P; higher = faster cleavage; RNA array
# Summary of the method: as §1
# glucosamine-6-phosphate [6] = variants of: B1; test: self-cleavage kobs at 40 uM GlcN6P; higher = faster cleavage; RNA array
# Summary of the method: as §1
# glucosamine-6-phosphate [7] = variants of: B1; test: self-cleavage kobs at 160 uM GlcN6P; higher = faster cleavage; RNA array
# Summary of the method: as §1
Variant,kcat (glucosamine-6-phosphate [1]),KM (glucosamine-6-phosphate [2]),self-cleavage kobs at 640 uM GlcN6P (glucosamine-6-phosphate [3]),self-cleavage kobs at 2500 uM GlcN6P (glucosamine-6-phosphate [4]),self-cleavage kobs at 10000 uM GlcN6P (glucosamine-6-phosphate [5]),self-cleavage kobs at 40 uM GlcN6P (glucosamine-6-phosphate [6]),self-cleavage kobs at 160 uM GlcN6P (glucosamine-6-phosphate [7])
AUAAAAGCGCCAGAACUACAGAAAUGUAGUUGACGAGGAGGAGGUUAAUCGAAUUUUCGGCGGCUGCCUCCAAA [U47A A64C],0.000113 ± 8.6e-06 s⁻¹,720 ± 280 µM,6.51e-05 ± 1.8e-05 s⁻¹,7.85e-05 ± 1.3e-05 s⁻¹,0.000109 ± 1.1e-05 s⁻¹,,
AUAAAAGCGCCAGAACUACAGAAAUGUAGUUGACGAGGAGGAGGUUAAUCGUAUUUUCGGCGGAUGCCUCCAAA [U47A A52U],0.000365 ± 3.9e-05 s⁻¹,2690 ± 570 µM,7.72e-05 ± 1.5e-05 s⁻¹,0.000158 ± 3e-05 s⁻¹,0.000299 ± 4.3e-05 s⁻¹,,
AUAAAAGCGCCAGAACUACAGAAAUGUAGUUGACGAGGAGGAGGUUAAUCGAAUUUUCGGCGGAUGACUCCAAA [U47A C67A],0.00576 ± 0.0027 s⁻¹,,0.0014 ± 0.00021 s⁻¹,0.00288 ± 0.00043 s⁻¹,0.00568 ± 0.0013 s⁻¹,0.000186 ± 2.7e-05 s⁻¹,0.000303 ± 5.4e-05 s⁻¹
AUAAAAGCGCCAGAACUACAGAAAUGUAGUUGACGAGGAGGAGGUUAAUAGAAUUUUCGGCGGAUGCCUCCAAA [U47A C50A],4.12e-05 ± 2e-06 s⁻¹,5840 ± 720 µM,,,2.6e-05 ± 9.8e-06 s⁻¹,,
AUAAAAGCGCCAGAACUACAGAAAUGUAGUUGACGAGGAGGAGGUUAAUCGAAUUUUCGGAGGAUGCCUGUAAA [U47A C61A C70G C71U],1.64e-05 ± 4.7e-06 s⁻¹,,,,,,
AUAAAAGCGCCAGAACUACAGAAAUGUAGUUGACGAGGAGGAGGUUAAUCGAAUUUUCGGCGGAUGCGUCCAAA [U47A C68G],4.89e-05 ± 9.9e-06 s⁻¹,,4.99e-05 ± 1.2e-05 s⁻¹,6.81e-05 ± 1.2e-05 s⁻¹,3.56e-05 ± 9.2e-06 s⁻¹,,
AUAAAAGCGCCAGAACUACAGAAAUGUAGUUGACGAGGAGGAGGUUAAUCGAAUUUUGGGCGGAUGCCUCCAAA [U47A C58G],0.000134 ± 1.1e-05 s⁻¹,1740 ± 440 µM,4.54e-05 ± 1.7e-05 s⁻¹,7.52e-05 ± 1.2e-05 s⁻¹,0.000117 ± 1.5e-05 s⁻¹,,
AUAAAAGCGCCAGAACUACAGAAAUGUAGUUGACGAGGAGGAGGUUAAUCGAAUUCUCGGCGGAUGCCUCCAAA [U47A U56C],0.00368 ± 0.00095 s⁻¹,3940 ± 1500 µM,0.000703 ± 8.8e-05 s⁻¹,0.00144 ± 0.00021 s⁻¹,0.00257 ± 0.00031 s⁻¹,,0.000111 ± 2.1e-05 s⁻¹
AUAAAAGCGCCAGAACUACAGAAAUGUAGUUGACGAGGAGGAGGUUAAUCGAAUUGUCGGCGGAUGCCUCCAAA [U47A U56G],0.0204 ± 0.0071 s⁻¹,3000 ± 1300 µM,0.00418 ± 0.00053 s⁻¹,0.0064 ± 0.0017 s⁻¹,0.0194 ± 0.0038 s⁻¹,0.000264 ± 4.1e-05 s⁻¹,0.000981 ± 0.00018 s⁻¹
